Assay results as given in article PMC3978657, “Early Steps in Autophagy Depend on Direct Phosphorylation of Atg9 by the Atg1 Kinase” (Molecular Cell, 2014).

T1: soluble Atg1 (Atg1 complex purified from yeast, released from the beads by TEV protease cleavage) (S. cerevisiae, UniProt P53104 1-897)
T1 construct: Atg1 serine-threonine kinase, S. cerevisiae; only Atg1 was detected (anti-Atg1 blot) in the pull-down; also called soluble Atg1 kinase; soluble Atg1 complex
T1 sequence (looked up): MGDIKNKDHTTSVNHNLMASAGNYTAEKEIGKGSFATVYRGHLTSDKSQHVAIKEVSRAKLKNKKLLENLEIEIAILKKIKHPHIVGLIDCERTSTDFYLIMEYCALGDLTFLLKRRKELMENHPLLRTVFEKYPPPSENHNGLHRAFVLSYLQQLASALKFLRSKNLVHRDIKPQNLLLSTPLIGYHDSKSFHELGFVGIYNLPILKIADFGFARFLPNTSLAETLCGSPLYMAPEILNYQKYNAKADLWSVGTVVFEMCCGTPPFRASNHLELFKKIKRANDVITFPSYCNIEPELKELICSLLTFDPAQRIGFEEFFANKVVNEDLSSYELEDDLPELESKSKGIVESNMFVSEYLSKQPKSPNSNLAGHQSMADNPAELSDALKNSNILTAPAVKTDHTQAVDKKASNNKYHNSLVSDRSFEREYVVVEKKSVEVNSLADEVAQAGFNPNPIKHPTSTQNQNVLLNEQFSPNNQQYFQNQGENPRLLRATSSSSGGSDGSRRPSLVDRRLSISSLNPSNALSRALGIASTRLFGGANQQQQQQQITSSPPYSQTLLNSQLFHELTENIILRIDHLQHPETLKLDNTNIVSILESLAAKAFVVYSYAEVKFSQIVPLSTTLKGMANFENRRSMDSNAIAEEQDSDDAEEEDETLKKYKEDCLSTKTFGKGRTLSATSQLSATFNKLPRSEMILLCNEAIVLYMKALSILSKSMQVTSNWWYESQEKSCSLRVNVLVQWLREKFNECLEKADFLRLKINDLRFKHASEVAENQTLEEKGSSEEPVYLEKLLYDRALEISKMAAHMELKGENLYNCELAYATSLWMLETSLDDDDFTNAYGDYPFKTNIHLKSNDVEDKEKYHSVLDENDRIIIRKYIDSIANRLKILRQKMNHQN


Target: T1, soluble Atg1 (Atg1 complex purified …)
Test: pull-down; GST fusion proteins from E. coli immobilized on beads, incubated with soluble Atg1; bound protein by anti-Atg1 western blotting
Conditions: both partners purified

Row | binding result | Binder
1 | binds | GST-Atg9^757–997 wild-type (domain or fragment, S. cerevisiae, UniProt Q12142 757-997, looked up, Atg9, S. cerevisiae, C-terminal fragment, amino acids 757-997; also called C-terminal fragment of Atg9 (amino acids 757–997); recombinant Atg9 C-terminal fragment; source: E. coli, immobilized on beads) RENSEYVDGLGYVCKYAMFNMKNIDGEDTHSMDEDSLTKKIAVNGSHTLNSKRRSKFTAEDHSDKDLANNKMLQSYVYFMDDYSNSENLTGKYQLPAKKGYPNNEGDSFLNNKYSWRKQFQPGQKPELFRIGKHALGPGHNISPAIYSTRNPGKNWDNNNNGDDIKNGTNNATAKNDDNNGNNDHEYVLTESFLDSGAFPNHDVIDHNKMLNSNYNGNGILNKGGVLGLVKEYYKKSDVGR
2 | binds | GST-Atg9^757–997 4A mutant (domain or fragment, S. cerevisiae, UniProt Q12142 757-997, looked up, Atg9, S. cerevisiae, C-terminal fragment, amino acids 757-997, 4A mutant; source: E. coli, immobilized on beads) RENSEYVDGLGYVCKYAMFNMKNIDGEDTHSMDEDSLTKKIAVNGAHTLNSKRRSKFTAEDHSDKDLANNKMLQAYVYFMDDYSNSENLTGKYQLPAKKGYPNNEGDSFLNNKYSWRKQFQPGQKPELFRIGKHALGPGHNISPAIYSTRNPGKNWDNNNNGDDIKNGTNNATAKNDDNNGNNDHEYVLTEAFLDSGAFPNHDVIDHNKMLNANYNGNGILNKGGVLGLVKEYYKKSDVGR
